Results: patent publication US20040229310A1 (Genentech, published 2004)

B1: anti-VEGF antibody VNERK with heavy chain FR1 subgroup III sequence (plasmid pxVG11VNERK) (antibody, V domains shown)
VH: EVQLVESGGGLVQPGGSLRLSCAASGYTFTNYGINWVRQAPGKGLEWVGWINTYTGEPTYAADFKRRFTFSLDTSKSTAYLQMNSLRAEDTAVYYCAKYPHYYVNERKSHWYFDVWGQGTLVTVSS
VL: DIQLTQSPSSLSASVGDRVTITCSASQDISNYLNWYQQKPGKAPKVLIYFTSSLHSGVPSRFSGSGSGTDFTLTISSLQPEDFATYYCQQYSTVPWTFGQGTKVEIKR
notes: Full-length humanized antibody made in E. coli (aglycosylated); also called anti-VEGF (VNERK); xVEGF (VNERK)
B2: anti-VEGF antibody VNERK with heavy chain FR1 subgroup I consensus sequence (plasmid pVKFR1-2) (antibody, V domains shown)
VH: QVQLVQSGAEVKKPGASVKVSCKASGYTFTNYGINWVRQAPGKGLEWVGWINTYTGEPTYAADFKRRFTFSLDTSKSTAYLQMNSLRAEDTAVYYCAKYPHYYVNERKSHWYFDVWGQGTLVTVSS
VL: B1 VL
notes: Full-length antibody made in E. coli; differs from VNERK (pxVG11VNERK) by 12 substitutions in heavy chain FR1 (subgroup III to subgroup I); also called pVKFR1-2 (FR1 = SGI); VNERK HCFR1=SGI

Assays:
[1] = target: T1, VEGF (UniProt P15692-4 27-191, limits assumed); test: BIAcore SPR, VEGF coupled to the chip, full-length antibody injected; Kd = koff/kon; original FR1 subgroup III sequence (pxVG11VNERK)
T1 construct: Coupled covalently to the biosensor chip; also called VEGF antigen; VEGF (109)
T1 sequence (P15692 other isoform, or with tags, fused parts or gaps limits assumed): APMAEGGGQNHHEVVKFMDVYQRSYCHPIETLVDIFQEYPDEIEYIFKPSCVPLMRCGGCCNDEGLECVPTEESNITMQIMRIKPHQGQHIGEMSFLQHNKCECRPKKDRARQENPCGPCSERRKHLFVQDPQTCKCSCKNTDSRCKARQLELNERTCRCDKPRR
Description: (§1) The VEGF-binding affinities of full length antibodies produced in bacterial cells were calculated from association and disassociation rate constants measured using a BIAcore™-2000 surface plasmon resonance system (BIAcore, Inc., Piscataway, N.J.) as described in Chen et al, (1999) J. Mol. Bio. 293:865-881). A biosensor chip was activated for covalent coupling of VEGF using N-ethyl-N′-(3-dimethylaminopropyl)-carbo-dimide hydrochloride (EDC) and N-hydroxysuccinimid (NHS) according to the supplier's (BIAcore, Inc., Piscataway, N.J.) instructions. VEGF (109) or VEGF (165) was buffer-exchanged into 20 mM sodium acetate, pH 4.8 and diluted to approximately […] to achieve approximately 700-1400 response units (RU) of coupled protein. A solution of 1 M ethanolamine was injected as a blocking agent.
(§2) For kinetics measurements, twofold serial dilutions of full length antibodies were injected in PBS/Tween buffer (0.05% Tween-20 in phosphate-buffered saline) at 25° C. or 37° C. at a flow rate of 10 μl/minute. Equilibrium dissociation constants, Kd values from SPR measurements were calculated as koff/kₒₙ.
(§3) To determine if the FR1 subgroup substitutions had any effect on the binding affinity for VEGF antigen, an affinity assay was performed using the expressed antibodies obtained from bacterial cells.

[2] = target: T1, VEGF; test: BIAcore SPR, VEGF coupled to the chip, full-length antibody injected; Kd = koff/kon; subgroup I sequence substitution (pVKFR1-2)
Description: as §1, §2, §3

Binder	Kd [1]	Kd [2]
B1	0.12 nM	–
B2	–	0.19 nM
